Measured values reported in the NTF2 design screens of Basanta et al. (2020).

Test: protease stability score; higher = more stable; yeast display proteolysis, trypsin and chymotrypsin;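 also: log10 excess protease needed over predicted unfolded state with 0 meaning unfolded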

Sequence | protease stability score
DQEAAQDMRQWINAWNQNNPRKLRKLVDENARINIGEWHLQGRERIHKFAEKLIHEMDVQFSIKSFHVQGNKIKANLRIVANINGRPHEVNANLVVIVHNGHIKEIKATLDEDQIRHLNS | 0.648
DQEAHRVFNEFIKAITTGNPDRARQLADPNARFQVGDKRYHGMERYASTLKQQQNKMTQSLRVRDVDVKGDKIKVDAQSEMNHNGQPRRSQHNIDVNIQGDKIKRVRYTDDK | -0.454
DQEDKDSLEQILHTGDWVDAAKSADPNAQAEVGDKTWTGREQVEKVMKRLRDDIDHQEVKSVEIDGDKMHVDLTAHINGERMRITIEVKYSNGHLVKVVVKATDKEVEKHLKKLLD | 1.54
DQEDLKHLANVLRTGDWDRLRDLFDENARVKIGDKEVHGKEDAKKLAEQLKRSIDHMKISTWSITNGVLEMHFRVNVNGKTYEVQMELHAHNGRIKSMELHYRNREVKHVIKEMLD | 1.08
DQEDLRRIAEQVNRAFEKNDHDLMRRLADKDVKFHVGEKELTGRDNLARFLQEFRRRADHITVKSFDASNGRVNADIEIDVNGQKIKLHMQAEVHNGHIKHVRFHYTDEQQLRDFLS | 1.24
DQEDQQRLAEQFMRALDEGDSDTIAKLLDPNARVIVGDKTVHGHRHARRVIHEFRNRVDRVDVRTVEVDNGHVRIEAVLNFNGQRTRFVYHLKIDNGRFKEMQLRSK | 0.892
DQEEAEKVMKQWMEAVQKGDEDTVRKLYDPNVEWINADTKEQDVEQFRKAIKKAKDKGVEFQVRKAKVEGDRVQMHYDVRIGNETVTFTVEMDVQGGKVEWLRVKVDEKARKALTKG | 1.22
DQEEAERVVKRAIKALENGNSKELKDLGKEGVEYEFGDKKIHGPDALVKQFRTLQKKGVEMEFKEHHVEGDEAHTKVRYRNGDKENEATITATVKGGRIDRVQVNVPETIRKIVKHG | -0.076
DQEEAKEVAEKVMKAVENGDEKKLKDLIDEGVKYEVGDTQQHGPEVAVKVVQYLQKKGVRLEFKEVQHHGNQVHTKIEYQNGDETDTVEATAEVKGGKIDQVQIHASETVVKWIKHG | 0.088
DQEEAKKIVDKMLKAVENGNEEDLVKMGADGVEYRAGDKKAHGPEAIQEVVQYLKRKGVEVEVKEVQVKGDKAQTHVDYKVGNETMTATANATLKGGKIDRVEIDFDETLKKVIKDG | 0.154
DQEEAKKVAEQAIKYVENGNLTELMDMLKDGGEYQVADDKKHGKEVLYKLVKILQRLGVEVEFKRTEIEGNTVTTDVDYRLGDEEATAQAHAEVQGGRIDRVQIDADEHLKKWIKHG | 0.606
DQEENQKIAERIVKIIQTGDNEKAMKQVDKNVRIRVGEKEYHGRESAREHIREQKEQFDHATVDDMKVQGNKIVLKMRLDVNGVDMDVVIKVTVKNGTIKELHVEYRDREDQQKIES | 1.09
DQEEVEQAKKFVEAQKSGDPDQLNDLADPNVELEIGDQELHGREDLHDWANHQNKHMRMEVRDVKAQDKPNHVEVHIRFVINVNGKPRDTTVEVDFSAENGHIKKIKFQIDHHELRKLEK | -0.154
DQEEVRRVVEKVAKAVQNGDATRLRDMGKDGVKYRRVEEETHGPEAVEKVLKYLRKQGVKLQVKHVEVEGNTAQTEVDYRRGDETLTVHAKAKVQGGRIDEVQVDLDEKAKKYVDHG | 0.138
DQEHVKRRADTAMKAIQNGDPDEAVKQMDPDAKMRVGDHEITGREDVRRYVETLHRRVDHNHILSLTHHGETVVFNAVVKVNGRNVTVNWVLKFHNGRLKQVDINPDEEKRFQS | 0.079
DQEHYEKIAKHMSDVLRTGNPDDMLRMIDPNARLEVGDKRWNGRHKIKKFLETFVKSADHVKVRHVEVSGNDITLDVVAHVNGRSVKFNVHANVHNGRIKEVKFDPRAWRDLQT | 0.505
DQEKFERMAHKANRALEQNDEETFDELADENARMIYGDKRYTGRERVREAVQEIDKRVDHVQVDRVNVHGERAQINAVFHFNGKTQRDNVNMRFSNGKLQEMRFDPDVIRNLEE | -0.131
DQEKKATRFARKLIHDIRTNDEEHLVDLADPNVKVQYGDKSYHGREQFKKWWKDLMDQADHVDVKVRDLKVDGNKFVLVYSYVMNHNGQKREVEMNVSAKDKNGRINIQSIQMG | 0.301
DQEKLETLARQVFDAFREGDEETFRRLADPNVTAVYGDQKYRGRERVAKWLKDLANQIDHLQLNDVTIQGEKMHFDATVRINGKNRKLVMIVEAENGTLKRVVLSHG | 0.166
DQEKLQSYVKQYETNDESKLKKNMDENARVDIGDRRITGMEKAADILRHFMEQADHVKLDRMEVQGNHATVDVTAVVNGQKLDYKFVIHVHNGKVKRVEWRVTSEENQKTYDKIVG | 0.537
DQEKNNHDAKKWVKNLRTGNEDELQRLFDEDARFNYGDKTVTGREQLQEWAHRMQRRIDSVDVRSVSQHGDKMNIDVVVRVDGRDRRFIFRAEIHNGRIKNAWMEDT | 0.497
DQELRDQVERLLHLEKHGDNDEVLRQFDPNAKAQVGDTRYHGMTTAVRDMVRQQNEARFSFEIHHVSVSGDRVVIDAVYVKDHNGKPSTRRVHIQMHFRNGKVQERRQNDDG | 0.782
DQENLDVLRRLWEALESGNPDKYSQLIDPNAEVVVGDKTYEGKENLKQEIRTERDEMRKEIDWKSMSVHNGQANAEAKIRSNHNGDPREMVVTARARFHNGKLQNYEQHVDK | -0.325
DQENLELMNRLLEAISSNDESKFRRLVDPNVRVVIGDEQYHGRETLQKLLRDHNEHSRNDEHIHRVELHNGRVNMDVTREVDHNGRPQTDKFEIVATANNGKAVRMRFERTS | -0.164
DQEQAEETQKKWQEVVEKGDEKKAKKIYDPNGQWQDADETHQGYEIVIKMMRRAQKKGIEFQVRRAEVEGDRLQVDYDMRLGDKTVTFTVQMEVQGGHVKVVRVEVTEEAKKLLKEG | 1.11

Sequence | protease stability score
DQEREMQEWYEKLVRNYENNDRDRLNELLDPNAQFNVGDQTFHGRENAKKWLKTMVDKVDSVEFDLRRLHVHGNKVVFHANVRYRVNGTDTTVDVVIVARVDNGRLRVEKVEYG | 1.28
DQERNEQAKKLLDIINTGDEHKVKDMFDPNASIKVGDHTLHGREEIAKHYRREKDESRYQVDRVDFKAHGEKVRVSVKYTFRHNGKPLTATVEYNFRMHNGRIKDLSVRFDEQRQRDRDS | 0.117
DQEVAETMMERWQKAVQKGDPKEVQEVYDPNVTWKDVDEEHQGKEQVVKQMRKVQKQGIEFQIRRAEVEGDRAQAVYDVKLGNLTVTFTVEMTVRGGRVQEVRVEMDEEAKKLVKKG | 0.136
DQEVREYIKRVYSTGDPDELNKLIDKDVRMRVGDKEVEGRETVQTIMRDWMTRVDDIKVHSYDVRGNKANYDAQYVFDGRSARFVIHIEFHNGRVKHVVVEATNEEVKQLLRDMLS | 1.33
DQHAKRLFDEVVSAIKDGDPHQVKKQLDKNVRARVGDKTISGRETFAQQRKTERDEIEWDVEDYKADVNGDHIKVDMKVKSEHNGRPTSDKIDVDVQWHNGHVVRMEFKETR | -0.392
DQHDAERMNRVFEQNNEEELHQLMDPNVEVTVGNKRVKGRERAKKLFKRLVTNIDHVSYRSVNDDGDKLELKFVAVINGQTYHLKIEVTLHNGKVKSIHLDARDEKLKHLLDEWLH | 1.39
DQHEQQKLAENVQKVLRKGDESRFQRLVDPNAKMTYGDKSLTGHERFRKWMQEFRHHADHVEFKEVSIHNGKLNMHAVIDVNGHKQTFVMHFQFHNGTVQHVEQTQT | 0.289
DQHLEDVARQMQEVEKHNDPEEVSKQFDPNAHARYGDKEVHGHHQFKEQAKRRQTKAQFKVDKYSVSVDNGRVSMSRQYVNDHNGKPRTQTDTAHMEVHDGRITDVKYQSTS | -0.139
DQHVEDVARKFINAMQTGDPDRLKELFDPNARQQVGDTVVTGREHAAKKWKEWVDEMEVHVQLRSIDVRGDKATLRFKLEVRVNGKPSQQDVTMVIHMHNGRAVDVKLSIDERDKKEIDS | 1.42
DQKDAKRATEILKNLQEGDWSEVVRQADPNAEIKVGDKVYNGMEHYAEHMHRKVEHSRIRIEVETVKDHNGVIHIKFHIEYKVNGHPRSNTQNINFYLNNGKVRSIDVQVPEEDLEKEHK | 0.252
DQKKLKEQIKELWDALRTGDPQRAADLADPNARIQVGDKEITGREKFREHVKENKERIDRFTINDFKVQGDKARVDFHYEVNGQHRRVDATIVMRNGHIVSAQFDSQ | 0.717
DQKKQQEVLEQWSKNDPRDLRKQADKDVRVQIGDTTYHGREDAQDALYTLAKRVDHFKYQHIETEGDHIRVDLVVNVNGREYQLTFEAQFHNGRLKTLEMQVRDEDQHKRLQEQLD | -0.22
DQKVNEFFKHVVKVEENGDTDKYRDNFDKDARAVYGDKRVTGNDELADTMRRTRHDMKYDVRSMDVQVRNGRVTVDVKVDVRVDGKPHSLKETIEMEVDNGKVKEVRVDFDPDQRRKVER | -0.188
DQNDRAEEFFKHWQRILTKNDPDEARKQMDKDVNVVYGDKRYHGREEVVKYLRDNMDRVDSIRVKLDDFKVDNGKATFHARFRQTHNGKDEQHNVVIVAQFKNGKLRAQSYHES | 1.01
DQQDVDRFTEFLEAVERGDEDRLRELMDKDAKQKVGDKTIEGSEKQVNELNDRARRMRIVLEVHDVKVHNGRLEARADLLVNVNGQPVRDDVVVRVQVHNGKITHVEMHFPEEFKRQMRR | 0.858
DQQHTASKVLSDMVKAIQDGDEDHISEQADENVKIRIGDKEYHGKENARRMLKEIQHQVDHISVEVKSVSSHNGRVNVRAEVQMRFNGRSTSYDVTAIFRYNNGQLRLYSVSAR | 0.242
DQQKEAEKFARDMRRALDTGDERDVANLFPPDAKLRYGDKSFHGMDDIFKWVVTVLRQADHIHFQVRSVRDQGDKADIEFELRYDVNGQDRSRIFHAEVRHNGDNVQVEMNVEK | 0.326
DQQTDAKEHAETVNKVLTHNDPNKLRELFDEDARMRVGDKEYRGQEQVDHVLKEIADRVDHVDVKLESVSLENGSVKVVIRAVFDDNGRKNDVHIDLVAVIDNGDLYIKEIRFE | 0.301
DQRDLEHVNHVLQTGDPDQFRDLVDPNARIRVGDKTIHGRENVLTKYRRLMEQADHLQIDSIRNHGEFVVFDFRMTVNGRQVDAEVNIHVKDGQIKEIEIRFRSEEQEDRWRKQAD | 1.42
DQRDQRKANEIIKTNDESKLAKQADKDARLVVGNKEYHGKEQVQHFADQLEKMFDHLEITHYDSHGENFNVVAVMDVNGQRVQYYWRFRVHNGQFKYIEFRARDEETQKTIHRLLG | 0.606
DQRDVEKIATKLSEVVRTGDPHEFAKMADPNAKVEVGDKSWRGHEEIRDWLKQITDEADSIHVDSVTAQGDKIDMTITVDFNGKRVQFDIKIQMENGRIKKMKLDPDQQRKLER | 1.04
DQRDVKKAEHLLRILETGNESELKKMMDPNARARVGDTTYHGMDDFVRKLTHMRDRAKFEIKEYSATDHNGHIRVHVRREVNFNGRPDRVSFIVRFDIENGKVRSVIFNLPRELLEREKK | 0.429
DQREIVTKILRDFVKAFKTGDQDKYEKLVDKDVEYNIGDKTYHGREEAKKLFRELVKQVDHYSVHYKSISVRNGRAKVEAIQYYKHDGRTYHNKVSYTFRIQGDKIRMQDATFS | 0.602
DQRERQEHAEHFNRVLQTNDPDRIKKLFDPNAKLQIGDSTFTGREDIDDAAKELKEQADHITVDRVHVHGNKVTLRFVMNVDGKSADATVTMIVKNGRAKEVHFDPRLEEQIKK | -0.407
DQRERVKKLFDRFQHNIKHGDKSKATNQFPPDVTMSIGDEDLHGRDAAKRYADNVANNADRFHHEIQDYKQKGNNANLRVKIVLNHNGTNHSHEADWVAVVHNGQARLKEVKFD | -0.078
